Measurements from patent US9492501B2, “Antiviral agent” (priority 2009, dated 2016).

B1: HPBP: human phosphate binding protein, plasma DING protein of 38 kDa, SEQ ID NO: 2, purified from human plasma (protein, listed as Homo sapiens)
chain: DINGGGATLPQKLYLTPDVLTAGFAPYIGVGSGKGKIAFLENKYNQFGTDTTKNVHWAGSDSKLTATELATYAADKEPGWGKLIQVPSVATSVAIPFRKAGANAVDLSVKELCGVFSGRIADWSGITGAGRSGPIQVVYRAESSGTTELFTRFLNAKCTTQPGTFAVTTVFANSYSLGLSPLAGAVAAIGSVGVMAADNDVTTAQGRITYISPDFAAPTLAGLDDATKVARTGKGSSSGGGAEGKSPAAANVSAAISVVPLPAAADRGDPNVWTPVFGAVTGGGVVAYPDSGYPILGFTDLIFSECYANATQTGQVRNFFTKHYGTSANDNAAIQANAFVPLPSNWKAAVRASYLTASNALSIGDSAVCGGKGRPE
B2: PON-1: human paraoxonase (PON1), co-purified with HPBP from plasma and separated on hydroxyapatite (protein)
chain: AKLIALTLLGMGLALFRNHQSSYQTRLNALREVQPVELPNCNLVKGIETGSEDLEILPNGLAFISSGLKYPGIKSFNPNSPGKILLMDLNEEDPTVLELGITGSKFDVSSFNPHGISTFTDEDNAMYLLVVNHPDAKSTVELFKFQEEEKSLLHLKTIRHKLLPNLNDIVAVGPEHFYGTNDHYFLDPYLQSWEMYLGLAWSYVVYYSPSEVRVVAEGFDFANGINISPDGKYVYIAELLAHKIHVYEKHANWTLTPLKSLDFNTLVDNISVDPETGDLWVGCHPNGMKIFFYDSENPPASEVLRIQNILTEEPKVTQVYAENGTVLQGSTVASVYKGKLLIGTVFHKALYCEL
B3: p27^SJ: St. John's wort protein, SEQ ID NO: 4, 71% sequence homology with SEQ ID NO: 1, excluded from the invention (protein, listed as Hypericum perforatum)
chain: MADINGGGATLPQALYQTSGVLTAGFAPYIGVGSGNGKAAFLNNDYTKFQAGVTNKNVHWAGSDSKLSATELSTYASAKQPTWGKLIQVPSVGTAVAIPFNKSGTAAVDLSVSELCGVFSGRITDWSGISGSGRTGAITVVYRSESSGTTELFTRFLNAKCAETGTFNISTTFGTSYTGGLPAGAVSAAGSQGVMTALAGADGGTTYMSPDFAAPTLAGLDDATKVARVGKDVATNTAGVSPAAANVSAAINAVPVPASTEKP

Experiments:
[1] = tested on: HIV-1 promoter (HIV-1 LTR); test: HIV-1 transcriptional activity, luciferase test in HIV-LTR Jurkat line; type: cell-based; conditions: treatment 24 hours
Text: (§1) Method: a Jurkat CD4+ T lymphocyte cell line (line 1G5) having integrated into its genome a construction comprising a luciferase reporter gene the expression of which is controlled by the HIV-1 promoter (HIV-1 LTR; HIV-LTR Jurkat line) was used. The measurement of luciferase activity from the cell extracts therefore makes it possible to estimate the HIV-1 transcriptional activity.
(§2) The Jurkat HIV-LTR and Jurkat 1G5 lines were transfected by means of the DEAE-dextran technique with the proviral genome NL4.3 (complete HIV-1 genome, strain LAI).
(§3) The HIV-LTR Jurkat and 1G5 Jurkat lines thus infected, are treated 24 hours later with HPBP/PON protein complexes or with purified PON or HPBP proteins at a final concentration of 2 μg/mL of medium (52 nM of protein alone).
(§4) The cells and the cell supernatant are sampled after treatment for 24 hours.
(§5) The transcriptional activity is measured by carrying out a luciferase test. The intensity of the HIV-1 replication is measured by means of ELISA assay of the quantity of viral p24 capsid proteins present in the supernatant of the cell cultures of the infected 1G5 lines [Rohr, O., et al. (2000). The Journal of Biological Chemistry 275, 2654-2660].
An untreated negative control as well as a positive control treated with AZT at a final concentration of 10 μM were carried out in parallel. Each experiment is carried out in triplicate.
In parallel, the infected lymphocyte lines obtained were treated with 10 μg of potato DING protein.
as §1, with “Measurement” for “The measurement”, “activity. […]” for “activity.”
(§6) The transcriptional activity and inhibition of the replication are measured as described in Example 6.

[2] = tested on: HIV-1 (proviral genome NL4.3, strain LAI); test: HIV-1 replication, ELISA of viral p24 capsid protein in supernatant of infected Jurkat 1G5 cells; type: cell-based; conditions: treatment 24 hours
Text: as §1, §2, §3, §4
as §5, with “2654-2660]. […]” for “2654-2660].”
as §6

C/EBPβ protein = C/EBPβ protein (Homo sapiens, UniProt P17676); test: ELISA of in vitro interaction of HPBP and C/EBPβ proteins; type: binding; conditions: C/EBPβ adsorbed on plate, pure HPBP 0.1 nM to 100 mM
Method: (§7) The combination of the Human Phosphate Binding Protein (HPBP) with the C/EBPβ protein is carried out using an ELISA technique.
In ELISA flat-bottom 96-well plates having a high binding affinity for proteins, the C/EBPβ protein is adsorbed on the support and incubated overnight at 4° C.
(§8) The proteins not bound to the plate are removed by washing with a Phosphate Buffered Saline (PBS) buffer containing 10 mg/mL of Bovine Serum Albumin (BSA).
The wells are saturated with a Phosphate Buffered Saline (PBS) buffer solution containing 20 mg/mL of Bovine Serum Albumin (BSA) for 1 hour at room temperature in order to remove the background noise.
After washing with a Phosphate Buffered Saline (PBS) solution containing 10 mg/mL of Bovine Serum Albumin (BSA), different solutions of pure HPBP from 0.1 nM to 100 mM are added to the wells for incubation for 1-3 hours at RT.
The plate is once again washed then incubated with mouse monoclonal anti-HPBP antibodies or rabbit polyclonal anti-HPBP antibodies for incubation for 1-3 hours at RT. […]
(§9) Then after a last washing, the plate is incubated with an HRP substrate (3,3′,5,5′-tetramethylbenzidine: TNB in the presence of hydrogen peroxide H2O2). […] The optical density of the product of the reaction is then measured with a spectrophotometer at 450 nm.

Cell Line R3HR-1G5 (1g5) = test: Cell toxicity by MTT method, cell line R3HR-1G5 (1g5); type: cell-based; conditions: 1g5 cells, culture 24 hours, FIG. 10
Method: The cell toxicity of the HPBP protein was measured on cells in culture.
5.10^6 cells/mL of the lymphoid line B 1g5 were seeded on plates and treated, or not treated, with different doses of purified HPBP protein: 0.2 μg/mL, 2 μg/mL, 20 μg/mL, or 90 μg/mL.
The cells are cultured for 24 hours at 37° C.
(§10) After culture for 24 hours, the toxicity of the protein is evaluated by measuring the number of living cells by the MTT method (3-(4,5-dimethylthiazol-2-yl)-2,5-diphenyl tetrazolium bromide) as described in Berridge et al. Biotechnology Annual Review, 2005, 11, 127-152.
Briefly, 10 μL of MTT is added to each culture.
The mixture is added quickly over 1 minute, then the cultures are returned to 37° C. for 4 hours.
The culture supernatant is then aspirated, and the crystals formed by the presence of MTT are dissolved with acetic acid.
The optical density (OD) of each of the cultures is measured at 570 nm using a spectrophotometer.

[3] = tested on: Peripheral Blood Lymphocyte (PBL) cells; test: Cell toxicity by MTT method, peripheral blood lymphocytes; type: cell-based; conditions: FIG. 11
Method: as §10
Similar experiments were carried out on primary lymphocytes. Conditions similar to those used for the 1g5 cells were used.
(§11) The PBL cells were treated with 0.24 μg/mL, 0.48 μg/mL, 0.96 μg/mL, 2.4 μg/mL, 4.8 μg/mL, 9.6 μg/mL, or 24 μg/mL of HPBP protein. Untreated cells were tested as a control.

Microglial cell line = test: Cell toxicity by MTT method, microglial cell line; type: cell-based; conditions: for LD50: microglial line, MTT
Method: as §10
Similar experiments were carried out on microglial lines. Conditions similar to those used for the 1g5 cells were used, with 5.10^5 cells/mL.
as §11
The cell toxicity of St. John's wort protein p27^SJ was measured on cells in culture under the conditions described in Example 15. The p27^SJ was tested at doses of 0 μg/mL (control), 0.01 μg/mL, 0.1 μg/mL, 0.5 μg/mL, 1 μg/mL, 5 μg/mL, 10 μg/mL, 20 μg/mL and 40 μg/mL.

GST-Tat protein = biological target: T1, GST-Tat protein (Human immunodeficiency virus type 1 group M subtype B, UniProt P04608); test: ELISA of in vitro interaction of HPBP and Tat proteins; type: binding, HIV-1; conditions: GST-Tat adsorbed on plate, pure HPBP 0.1 nM to 100 mM
T1 construct: made in house
Method: as §7
In flat-bottom 96-well ELISA plates having a high protein-binding affinity the GST-Tat protein is adsorbed on the support and incubated overnight at 4° C.
as §8
The wells are saturated with a Phosphate Buffered Saline (PBS) buffer solution containing 20 mg/mL of Bovine Serum Albumin (BSA) for 1 hour at room temperature in order to eliminate the background noise. […]
as §9
The inventors used the Enzyme Linked Immunosorbent Assay (ELISA) technique, suited to studying the interaction between the HPBP protein and the HIV-1 (TAT) protein (Engvall and Perlmann, 1971)). The HIV-1 TAT protein was expressed in the form of a fusion with GST in order to obtain the soluble protein and in quantity (approximately 2 mg/mL). […]

T1 sequence (P04608 whole entry): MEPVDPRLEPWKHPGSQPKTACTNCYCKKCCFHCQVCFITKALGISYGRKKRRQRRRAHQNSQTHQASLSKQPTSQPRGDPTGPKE
C/EBPβ protein, sequence (P17676 whole entry, species assumed): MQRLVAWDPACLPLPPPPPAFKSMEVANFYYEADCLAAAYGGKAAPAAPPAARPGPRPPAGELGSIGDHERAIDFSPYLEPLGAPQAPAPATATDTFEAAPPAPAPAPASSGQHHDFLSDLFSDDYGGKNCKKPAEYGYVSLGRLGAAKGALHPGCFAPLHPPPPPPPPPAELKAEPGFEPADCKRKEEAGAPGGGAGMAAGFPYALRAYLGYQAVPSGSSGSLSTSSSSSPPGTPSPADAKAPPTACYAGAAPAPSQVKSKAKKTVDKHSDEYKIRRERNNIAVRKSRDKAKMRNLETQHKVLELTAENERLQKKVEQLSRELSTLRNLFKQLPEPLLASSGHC

Molecule	transcriptional activity repressed ([1]; 2 μg/mL (52 nM), luciferase, FIG. 3)	inhibits the viral replication by a factor (FIG. 5) ([1]; HPBP 2 μg/mL, FIG. 5 (luciferase activity))	inhibition of HIV-1 replication ([2]; 2 μg/mL (52 nM), p24 in supernatant, CD4+ T lymphocytes (Jurkat 1G5))	interaction of HPBP protein and C/EBPβ protein in vitro (C/EBPβ protein)	lethal dose 50% (LD50, dose killing half of the cells) (Cell Line R3HR-1G5 (1g5))	LD50 [3]	LD50 (Microglial cell line; FIG. 12)	interaction of HPBP protein and Tat protein in vitro (GST-Tat protein)	inhibiting effect on transcriptional activity (in words) ([1]; 2 μg/mL, luciferase, FIG. 3)	repressive effect on HIV-1 replication (in words) ([2]; 2 μg/mL, p24, FIG. 4)	cell toxicity (in words) (Microglial cell line; conditions of Example 15, FIG. 12)	cells dead (Microglial cell line; dose of 40 μg/mL, FIG. 12)
B1	80%	> 6	89%	capable of interacting in vitro	approximately 20 μg/mL	approximately 5 μg/mL	approximately 2.5 μg/mL	capable of interacting in vitro	–	–	–	–
B2	–	–	–	–	–	–	–	–	does not have such an inhibiting effect	no repressive effect	–	–
B3	–	–	–	–	–	–	greater than 2.5 μg/mL	–	–	–	toxicity very clearly less than that of the HPBP protein	approximately 4%
